Reference: the DeepSol protein solubility set

Assay: soluble on expression in E. coli; label from the status in PepcDB or PDB records

Row | Sequence | soluble on expression in E. coli
1 | MGSDKIHHHHHHMSILTVENVSHSYGEKTILYNACFRLLKGEHVGLVGQNGIGKSTLLKILTGELIHDEGNIEWFPHVKVGFLQQHIDLQEGITIEGYLQSAFADLYVIECEMLKIAEEMNGAGEVEKLLVKYGELQTILESSNFYHIHTEVEEVAIGLGLFEIGLKKDVSKLSGGQRTKLLLGKLLLEKADVLLLDEPTNYLDTAHIEWLQSYLRLYEKAYVIISHDELFLNSITNVIFHLEGGKVKRYVGNYEKFVQSYQVQKKQLQSAYVKQQKEISQLETFIQKNKIRKAKQAKSREKVLEKMQRIEKIHPVPRSRFDFNVYEEPVSRILQAEKLRIGYSDPLCPELNLQVKKGEKIAIIGHNGIGKTTMLKTLLGQIKPLSGSISVGERVNPAYFAQEEFASETTPLEKVWAERPDMTKKEVRQALAKCGLKEEHVLKPIRLLSGGEQTKVRLCELIVKKSNVLILDEPTNHLDIETKKALQEALQRYRGTVLLVSHEPSFYEAWITKVWNIEEWNAEQYE | not soluble
2 | MAASVEQREGTIQVQGQALFFREALPGSGQARFSVLLLHGIRFSSETWQNLGTLHRLAQAGYRAVAIDLPGLGHSKEAAAPAPIGELAPGSFLAAVVDALELGPPVVISPSLSGMYSLPFLTAPGSQLPGFVPVAPICTDKINAANYASVKTPALIVYGDQDPMGQTSFEHLKQLPNHRVLIMKGAGHPCYLDKPEEWHTGLLDFLQGLQ | soluble
3 | MKMMDANEIISFIQNSTKSTPVKVYVKGELEGINFGESAKAFINGNTGVVFGEWSEIQTAIEENQSKIEDYVVENDRRNSAIPMLDL | not soluble
4 | MVSTYDEIEIEDMTFEPENQMFTYPCPCGDRFQIYLDDMFEGEKVAVCPSCSLMIDVVFDKEDLAEYYEEAGIHPPEPIAAAA | soluble
5 | MGSDKIHHHHHHMKSYKNYIFDFYGTLVDIRTDENKLEVWNQLTQIYNAFGCSYRPRQLKNAYHRFVEEAERFLAETVSYQYVEIDLETLFIRLLTDAPNENQSTNKPTDLETFGQVVATIFRVLSREKLEAYENTLTSLQTLAARAARLFILSNAQRIFTQAEIEQTGCADLMEKIYISSDFKMKKPEPAFLQLVLEENNLDVKETVMVGNDLTSDIAIAHELGMDSILLNTFPYSQEEIDSYRRLGWNFEVVGDIAELL | not soluble
6 | MSLIPIVASSPSPLISGDGDDALRQIGLLHERSAPLGAMMIDHGPDIGERSPVFSMTTIDGVPVTVGRAVSPGRPSLLMFTGPSCPICQKLLPIIRSVAATEGADVILISDGTQAEHREFLRNHPLDGEHYVVSAEIGMRYQVSKVPYGVLLDKDGVIQAKGLCNTREHVESLFETTRVGHSTLQNFLKHGVEDASKHEGHHHHHH | soluble
7 | AIAERSFVWLSCLDSDSCNLTFRLGEVESHACSPSLLWNLLTQYLPPGAGHILRTYNFPVLSCVSSCHLIGGKMPEN | soluble
8 | MSFGKIVVFLVLVLVQLIHCTRFTAPSLDRTIYYRNTPPDPFGHYSFEFQTTNGITTKGAGNENGAVGVVQFVSPEGIPVTFSYVADANGYQPTGDHIPAIPLHVIRQLEYIRTHPPVDEIRSRRWLEHHHHHH | not soluble
9 | EVEGDKTVPNNVANAPFAGTEPLAKKLGLTEVNSLNTAVAATSSFVQFNAIASHSTFASPSGTLADVNHHAEMQKENADFLMDNALSDVSDTTVLK | not soluble
10 | MGSDKIHHHHHHMEEKKALIIVDVQKAFDDKKWGERNNVKAEENISKILELWREKGWTVIYIQHTSDKPHSLFHPKNEGFAIKEIVKPMDEEVIITKTVNSSFIGTNLEEFLKLNEITTVVITGLTTPHCVSTTTRMSGNLGFDTYLISDATAAFGMRDQNDTYYDAATIHNISLATLHDEFATILTTDQLINDFIKTH | not soluble
11 | MSIPINFNNLKYLLNDMRNKNRIIEAFPFNYNQRQYAVILTRYKPDEPRPDDYAQAKLEFFNLNSENSIFAYADFYEVHFKSATDFINFFKINVQAGAAKIREIFQSFSNLFADFIPTQTKKDLDIIYKKIVATRLEPNSPNTIYCYDVRRNGKDKAGKPNRRSVENSEKAKILRPELYEKFKADSNYSFFFSDNPSDEKTDAEIIREVTNRQ | not soluble
12 | MSLSEAGHKFLAKLGKKRLRPGGKRATDWLIAEGGFSKEKRILEVACNRGTTAIELAQRFGCKITAVDMDAQALEVAKKSAGTAGVAHLISFERANAMKLPYQDASFDIVINEAMLTMQADQAKKKCVMEYLRVLKPGGLLLTHDVLLKEAKESIRQELSQAIHVNVGPLTQDGWEQVMIESGYCDVKALTGEMTLMKLSGMIYDEGLLGTLKICVNACKKENRKQFLTMYKMFAKNKQKLGFIAMASYKSSEGHHHHHH | soluble
13 | NDEDCRNIYRYSPKDRKFEKLNLETDVTSAFAMSENNPSLAAYIGQGCYNAGVAYVYDLKKKTSRLIADPMKPTLERIELGEMKPWNFTASDGTEIKGMMCLPPSFDPNKKYPLIVYYYGGTTPTERGISNPYCAQLFASRDYVVYVIQPSGTIGFGQEFSARHVNAWGKRTADDIIEGTKQFCKEHPFVNDKKIGCLGASYGGFMTQYLQTQTDIFAAAVSHAGISNVTSYWGEGYWGYGYNAIAAADSYPWNNPELFTKQGSLFNADKINTPLLLLHGTVDTNVPIGESIQLFNALKILGKTVEFITVDGENHFIADYPKRMQWHNSIMAWFARWLQ | not soluble
14 | MTAKPTVFVVDDDMSVREGLRNLLRSAGFEVETFDCASTFLEHRRPEQHGCLVLDMRMPGMSGIELQEQLTAISDGIPIVFITAHGDIPMTVRAMKAGAIEFLPKPFEEQALLDAIEQGLQLNAERRQARETQDQLEQLFSSLTGREQQVLQLTIRGLMNKQIAGELGIAEVTVKVHRHNIMQKLNVRSLANLVHLVEKYESFERGVS | soluble
15 | VTPVTTFPLVDAILAGRDRNLDGVILIAAQHLLQTTHAMLRSLFRVGLDPRNVAVIGKCYSTHPGVVDAMRADGIYVDDCSDAYAPHESFDTQYTRHVERFFAESWARLTAGRTARVVLLDDGGSLLAVAGAMLDASADVIGIEQTSAGYAKIVGCALGFPVINIARSSAKLLYESPIIAARVTQTAFERTAGIDSSAAILITGAGAIGTALADVLRPLHDRVDVYDTRSGCMTPIDLPNAIGGYDVIIGATGATSVPASMHELLRPGVLLMSASSSDREFDAVALRRRTTPNPDCHADLRVADGSVDATLLNSGFPVNFDGSPMCGDASMALTMALLAAAVLYASVAVADEMSSDHPHLGLIDQGDIVASFLNIDVPLQALSRLPLLSIDGYRRLQVRSGYTLFRQGERADHFFVIESGELEALVDGKVILRLGAGDHFGEACLLGGMRRIATVRACEPSVLWELDGKAFGDALHGDAAMREIAYGVARTRLMHAGASESLMV | not soluble
16 | MTARDFLEFRERLAPASGFQSAQLREIEILLGLEDTQRISIGNGCSYRDALKLPGGAPSSSAQRVEARAADGPSFKHCLYDWLSRVPIDGSNAPADITRFLEAYLASLRAENDRRLKLASSGLAAAEIEQLRARYAAEDAGAQAFLLAEDDPQASDAERETRRAGRAAMLFIESYRELPQLAWPHALLESVLELEQAMLIWRQRHARMVERFIGRRIGTGGSSGVDYLDQTARYRIFTELWTVRSLLLRKAAVPQIRSSAGYGFVMEGFALEHHHHHH | not soluble
17 | MGSDKIHHHHHHMARIARVIATGIPHHVTQRGNRRMPTFFNDEDYRAYIALLGEWCRKCGVDIWAYCLMPNHVHLIAVPETDDGLRRGIGEAHRRYSRMINFRENWRGHLWQGRFASFPMDESYLLAAARYVEMNPVRARLTPKAALWPWSSARAHLDRMDDELVKVAPLLELVGDWSLFLAGTGEEDQLNDIRKHERTGRPLGTEEFVERLESALERPLKKGKPGPKGNDN | not soluble
18 | SNAMAKITVGTENQAPIEIYYEDHGTGKPVVLIHGWPLSGRSWEYQVPALVEAGYRVITYDRRGFGKSSQPWEGYEYDTFTSDLHQLLEQLELQNVTLVGFSMGGGEVARYISTYGTDRIEKVVFAGAVPPYLYKSEDHPEGALDDATIETFKSGVINDRLAFLDEFTKGFFAAGDRTDLVSESFRLYNWDIAAGASPKGTLDCITAFSKTDFRKDLEKFNIPTLIIHGDSDATVPFEYSGKLTHEAIPNSKVALIKGGPHGLNATHAKEFNEALLLFLKD | soluble
19 | MNKFIQSLPKVELHLHIEGTLEPELMLELAQRNSINIPFNSVEEIRDAYNFHNLQSFLDIYFQGADVLVHEQDFFDLTWAYLLRCQEDNVLHTEIFFDPQAHTERGILFDTVVNGIDRALNKGVSELGITSKLIMCFLRHLDEESAFKTLTQAQAHKDKIIGVGLDSTEIGNPANKFERVFKQAIEQGFLTVAHAGEEGPADNISEALSLLKITRIDHGVRCSEDASLVKQLVSERIPLTVCPLSNIKLKVFDRMEQHNIVTLLRQGVCVTINSDDPAYFGGYMTDNFVAVNNAHPMNKAEIAQFTFNAIEASFVSPSEQERLRQVTQKYIALHQE | not soluble
20 | MGHHHHHHSHLKHKMMNYMKDFRMIEDSENPEIVISVGGDGTLLQAFHQYSHMLSKVAFVGVHTGHLGFYADWLPHEVEKLIIEINNSEFQVIEYPLLEIIMRYNDNGYETRYLALNEATMKTENGSTLVVDVNLRGKHFERFRGDGLCVSTPSGSTAYNKALGGALIHPSLEAMQITEIASINNRVFRTVGSPLVLPKHHTCLISPVNHDTIRMTIDHVSIKHKNVNSIQYRVANEKVRFARFRPFPFWKR | not soluble
21 | MSTSDTPRTYHHGNLPAVLRQAAWDIVGEAGVRSVSLRECARRANVSHAAPAHHFGSLENLLAEVVADGYERMVDAVQAAQRELDDPVLGCGMGYVNFARQYPQHFRLMFGMTGVNRALPRLVNSGEATLQLLRQSLRTAWIAKNGVEPEPALLEQRTLLAWSTAHGYASLAIDRTTVEPFVVSAESILQPMAVFLLTP | not soluble
22 | MRGSHHHHHHGMASMVVNNPNNWHWVDKNCIGWAKEYFKQKLVGVEAGSVKDKKYAKIKSVSSIEGDCEVNQRKGKVISLFDLKITVLIEGHVDSKDGSALPFEGSINVPEVAFDSEASSYQFDISIFKETSELSEAKPLIRSELLPKLRQIFQQFGKDLLATHGNDIQV | soluble
23 | EKAVLIGEKEADITFVTWGSQKGPILDVIEDLKEEGISANLLYLKMFSPFPTEFVKNVLSSANLVIDVESNYTAQAAQMIKLYTGIDIKNKILKYNGRHMTEDEILKSAKEILNKESLMVVLEDGS | not soluble
24 | MSLVLRKRSMKLGDLKVHTLAIPLREPIQFSWEPFPHPVYVFSIVEVEAGGFKGYSAIEFGAAYKHFLETTVKLTIQGLDIEIEDVDARLLEVGSWAIQRLGALEVAIWDLIAKREGLPLYRLLGGGRRKVKVYASTGRLLSAEETVKMVEKYAELGIDVVKLRFRRERINEDLEVLKAVAREFSDVKISVDANQAWSYTPPYWSRKKAMKVAKELENFEVLWLEEPLWKDDVEGYRWLRENTSIEISGGELEHGIQRFRMLIEGGAFDIVQADAVYSNGIQECRKVAALAEAFNLKFMPHAWDPGLGWLANLHLAASLPEKLCPYIETPLDPLWWNEVMFGVLNGEVELEKGYAKLPEQPGLGFEPDEEKMKKFRIAEGHHHHHH | not soluble
25 | MALPTIESFKKLSSEDKRQVLDHLFEPCNTLSNFVFIKVLHQQYNTYPEFINLVRKELLEFLKQSETFQSQYQGEISPVINEIISAHPRLGEPKKETLSVHSNNEQKTLNNDPEIIKKLKELNAAYEKTFPGLRYVVFVNGRSRHEIMDNMQKRIERNDINLERVEAFNAMCDIALDRANKLGIKL | not soluble
